Holding throughout (assay): radioligand binding, displacement of [125I]EPO
In general terms: Displacement assays read how much labelled ligand stays bound in the presence of the test substance.

The target in experiment [1] is T1, erythropoietin receptor, human recombinant (NSO cells) (human) (UniProt P19235).
T1 sequence (looked up): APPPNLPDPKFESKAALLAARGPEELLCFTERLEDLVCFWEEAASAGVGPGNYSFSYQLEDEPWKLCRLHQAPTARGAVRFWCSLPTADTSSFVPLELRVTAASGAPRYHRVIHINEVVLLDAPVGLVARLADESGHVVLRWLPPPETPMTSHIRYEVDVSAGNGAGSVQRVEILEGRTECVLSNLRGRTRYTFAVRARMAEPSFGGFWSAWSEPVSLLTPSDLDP

Experiment [2] has as its target T2, erythropoietin receptor, human recombinant (NSO cells) (human, UniProt P19235 25-250, limits assumed).
T2 construct: also called EPOR; EPO receptor
T2 sequence (looked up): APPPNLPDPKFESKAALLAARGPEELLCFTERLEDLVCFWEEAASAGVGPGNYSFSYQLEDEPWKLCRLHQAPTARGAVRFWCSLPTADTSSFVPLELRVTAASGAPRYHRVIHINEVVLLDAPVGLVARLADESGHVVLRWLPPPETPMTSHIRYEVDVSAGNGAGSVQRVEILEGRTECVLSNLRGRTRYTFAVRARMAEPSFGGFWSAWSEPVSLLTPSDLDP

The target in experiment [3] is T2, erythropoietin receptor, human …. The source holds these as a separate data set.
Experiment [4] shares this target. The source holds these as a separate data set.

Where two headings read alike, the source gives them in different places. Where no end group is shown, it is not given here. [ ]: non-standard residue; d: D form. hLeu = CC(C)CC[C@H](N)C(=O)O; βAla = NCCC(=O)O

By Ki is commonly meant a dissociation constant, usually derived from enzyme kinetics or from competition with a known ligand. What is called IC50 is the concentration needed to halve the response being measured.

Take Ac-NYLRMGWVKP (peptide, part only; not given: Bridge, linker and tail moieties, not shown: small tags and cut ends, also: two linked chains, linker and second chain not given here) [EPO mimetic 2. (N-End AcNYL, Loop RMGWV, Mid KP)]: the Ki in experiment [1] was determined as 22 nM.

In the case of [DesaminoY]LRMPWVKP (peptide, part only; not given: Bridge, linker and tail moieties, not shown: small tags and cut ends, also: two linked chains, linker and second chain not given here) [EPO mimetic 15. (N-End Desamino YL, Loop RMPWV, Mid KP)], the Ki in experiment [1] stood at 9.6 nM.

B1: AC-0005-001 (peptide)
chain: GGNYLCRMGPITWVCKPQGG
modifications: not fully specified; cysteine pairing not given here
notes: Structure only as drawing CHEM-US-00003; also called compound 001
Regarding B1, in experiment [2], the IC50 turned out to be 1300 nM, the Ki stood at 615 nM and the “Ki (AC-0005-002)/Ki” value is 6.3.

With Ac-NYLRMLWVRP (peptide, part only; not given: Bridge, linker and tail moieties, not shown: small tags and cut ends, also: two linked chains, linker and second chain not given here) [EPO mimetic 8. (N-End AcNYL, Loop RMLWV, Mid RP)], in experiment [1], the Ki was 34 nM.

With Ac-NYLRMFWVRP (peptide, part only; not given: Bridge, linker and tail moieties, not shown: small tags and cut ends, also: two linked chains, linker and second chain not given here) [EPO mimetic 6. (N-End AcNYL, Loop RMFWV, Mid RP)], the Ki in experiment [1] worked out at 17 nM.

As to Ac-NYLRMGWVRP (peptide, part only; not given: Bridge, linker and tail moieties, not shown: small tags and cut ends, also: two linked chains, linker and second chain not given here) [EPO mimetic 4. (N-End AcNYL, Loop RMGWV, Mid RP)], the Ki in experiment [1] is 44 nM.

B2: AC-0005-004 (peptide)
chain: LYACHMGPITAVCQP
modifications: not fully specified; cysteine pairing not given here
notes: Structure only as drawing CHEM-US-00006; also called compound 004
For the molecule B2, in experiment [2], the IC50 is 265 nM, the Ki came out at 126 nM and the “Ki (AC-0005-002)/Ki” value came to 31.

Take Ac-NYLRM[hLeu]WVRP (peptide, part only; not given: Bridge, linker and tail moieties, not shown: small tags and cut ends, also: two linked chains, linker and second chain not given here) [EPO mimetic 9. (N-End AcNYL, Loop RMhomoLWV, Mid RP)]: in experiment [1], the Ki was 23 nM.

B3: AC-0005-003 (peptide)
chain: NYLCRMGPITWVCKP
modifications: not fully specified; cysteine pairing not given here
notes: Structure only as drawing CHEM-US-00005; also called compound 003; Control 2: AC-0005-003
B3: in experiment [3], the IC50 worked out at 171 nM, the inhibition constant Ki came to 81 nM and the “Ki (AC-0005-002)/Ki” value came to 48. For the same molecule, in experiment [4], the IC50 is 164 nM, the Ki stood at 78 nM and the “Ki (AC-0005-002)/Ki” value is 0.041. Besides, in experiment [2], the IC50 was 119 nM, the Ki came out at 56 nM and the “Ki (AC-0005-002)/Ki” value was 69.

Consider Ac-NYLRM[βAla]WVKP (peptide, part only; not given: Bridge, linker and tail moieties, not shown: small tags and cut ends, also: two linked chains, linker and second chain not given here) [EPO mimetic 3. (N-End AcNYL, Loop RMβAWV, Mid KP)], for which the Ki in experiment [1] stood at 27 nM.

B4: AC-0005-002 (peptide)
chain: GGLYACHMGPITAVCQPQGG
modifications: not fully specified; cysteine pairing not given here
notes: Structure only as drawing CHEM-US-00004; also called compound 002
For B4, in experiment [2], the IC50 was found to be 8170 nM, the Ki turned out to be 3870 nM and the “Ki (AC-0005-002)/Ki” value amounted to 1.
